Assay results as given in paper PMC4705668.

Molecular target: 111p (modern human L1Pa1 ORF1p) (Homo sapiens, UniProt Q9UN81 1-338)
Assay: filter binding; 0.05 M NaCl, 37 C; the three proteins indistinguishable; Filter binding: 20 mM Tris, 10% glycerol, 0.5 mM MgCl2, 0.1 mM DTT, 100 ug/ml BSA, 0.05 M NaCl, 37 C 1 h, 0.1 nM DNA; cross-linking: 20 mM Hepes pH 7.5, 10% gly

Chain of 111p (modern human L1Pa1 ORF1p) (Q9UN81 whole entry): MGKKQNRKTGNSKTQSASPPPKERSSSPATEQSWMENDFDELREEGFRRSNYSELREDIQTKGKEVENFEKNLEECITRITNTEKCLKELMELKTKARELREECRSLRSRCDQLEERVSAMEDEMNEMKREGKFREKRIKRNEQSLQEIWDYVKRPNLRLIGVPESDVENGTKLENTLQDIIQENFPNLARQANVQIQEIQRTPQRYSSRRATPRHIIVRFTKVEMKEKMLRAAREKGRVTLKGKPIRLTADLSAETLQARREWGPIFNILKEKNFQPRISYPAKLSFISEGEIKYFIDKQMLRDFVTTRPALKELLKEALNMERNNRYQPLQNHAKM

B1: mismatched duplex d29 / d29_c-mm (dsDNA)
DNA 1: AAAAAGTACACAGTCTAACATCAACTCGC
DNA 2: GCGAGTTGACGTCAGACCGTGCACTTTTT
Does B1 bind?
Result: binds
